Laboratory results from publication PMC4113718 (Biochemistry, 2013).
Like-named read-outs stand apart in the source and are kept apart here.

Legend:
[1] = biological target: T1, N-Terminal FITC labeled ubiquitin (UniProt P0CG47 1-76, FITC on the N-terminus); assay: binding of a fluorescent ligand to cells
[2] = biological target: T1, N-Terminal FITC labeled ubiquitin; assay: binding of a fluorescent ligand to cells; remark: listed apart in the source

B1: CXC chemokine receptor (CXCR) 4 on BV-2 cells (receptor, mouse (endogenous in BV-2), UniProt P70658 1-359, looked up)
chain: MEPISVSIYTSDNYSEEVGSGDYDSNKEPCFRDENVHFNRIFLPTIYFIIFLTGIVGNGLVILVMGYQKKLRSMTDKYRLHLSVADLLFVITLPFWAVDAMADWYFGKFLCKAVHIIYTVNLYSSVLILAFISLDRYLAIVHATNSQRPRKLLAEKAVYVGVWIPALLLTIPDFIFADVSQGDISQGDDRYICDRLYPDSLWMVVFQFQHIMVGLILPGIVILSCYCIIISKLSHSKGHQKRKALKTTVILILAFFACWLPYYVGISIDSFILLGVIKQGCDFESIVHKWISITEALAFFHCCLNPILYAFLGAKFKSSAQHALNSMSRGSSLKILSKGKRGGHSSVSTESESSSFHSS
Kd [1]: 119 nM
Kd [2]: 154 nM
